From US20220112296A1 (Chugai, published 2022)

molecular target: human CD137 (4-1BB) on cells (human, UniProt Q07011 24-255); test: cell-based or functional assay
Sequence (Q07011 24-255): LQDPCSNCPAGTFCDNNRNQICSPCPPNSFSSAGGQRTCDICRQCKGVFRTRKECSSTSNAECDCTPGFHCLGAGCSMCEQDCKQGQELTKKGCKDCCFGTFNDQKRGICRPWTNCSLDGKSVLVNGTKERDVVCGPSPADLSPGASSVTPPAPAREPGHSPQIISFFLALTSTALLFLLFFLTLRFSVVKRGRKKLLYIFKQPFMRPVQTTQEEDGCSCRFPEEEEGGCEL

Row | Binder | Agonistic activity compared to B, 6 ug/mL | Agonistic activity compared to B, 30 ug/mL | Agonistic activity compared to Ctrl, 6 ug/mL | Agonistic activity compared to Ctrl, 30 ug/mL | hIL-6 (pg/mL), 6 ug/mL antibody | hIL-6 (pg/mL), 30 ug/mL antibody
1 | GPC3 ERY22-B (bispecific antibody, human IgG1, kappa, L234A L235A, N297A) heavy 1: DIVMTQSPLSLPVTPGEPASISCRSSQSLVHSNRNTYLHWYQQKPGQAPRLLIYKVSNRFSGVPDRFSGSGSGTDFTLKISRVEAEDVGVYYCSQNTHVPPTFGQGTKLEIKSSASTKGPSVFPLAPSSKSTSGGTAALGCLVKDYFPEPVTVSWNSGALTSGVHTFPAVLQSSGLYSLSSVVTVPSSSLGTQTYICNVNHKPSNTKVDKKVEPKSCDKTHTCPPCPAPEAAGGPSVFLFPPKPKDTLMISRTPEVTCVVVDVSHEDPEVKFNWYVDGVEVHNAKTKPREEQYASTYRVVSVLTVLHQDWLNGKEYKCKVSNKALPAPIEKTISKAKGQPREPQVCTLPPSRDELTKNQVSLWCLVKGFYPSDIAVEWESNGQPENNYKTTPPVLDSDGSFFLYSKLTVDKSRWQQGNVFSCSVMHEALHNHYTQKSLSLSPHHHHHHHH light 1: QVQLVQSGAEVKKPGASVKVSCKASGYTFTDYEMHWIRQPPGQGLEWIGAIDPKTGDTAYSQKFKGRVTLTADKSTSTAYMELSSLTSEDTAVYYCTRFYSYTYWGQGTLVTVSSASVAAPSVFIFPPSDEQLKSGTASVVCLLNNFYPREAKVQWKVDNALQSGNSQESVTEQDSKDSTYSLSSTLTLSKADYEKHKVYACEVTHQGLSSPVTKSFNRGEC heavy 2: QVQLQQWGAGLLKPSETLSLTCAVYGGSFSGYYWSWIRQSPEKGLEWIGEINHGGYVTYNPSLESRVTISVDTSKNQFSLKLSSVTAADTAVYYCARDYGPGNYDWYFDLWGRGTLVTVSSASTKGPSVFPLAPSSKSTSGGTAALGCLVKDYFPEPVTVSWNSGALTSGVHTFPAVLQSSGLYSLSSVVTVPSSSLGTQTYICNVNHKPSNTKVDKKVEPKSCDKTHTCPPCPAPEAAGGPSVFLFPPKPKDTLMISRTPEVTCVVVDVSHEDPEVKFNWYVDGVEVHNAKTKPREEQYASTYRVVSVLTVLHQDWLNGKEYKCKVSNKALPAPIEKTISKAKGQPREPQVYTLPPSRCELTKNQVSLSCAVKGFYPSDIAVEWESNGQPENNYKTTPPVLDSDGSFFLVSKLTVDKSRWQQGNVFSCSVMHEALHNHYTQKSLSLSP light 2: not shown | 100% | 100% | 347% | 380% | 4520 pg/mL | 4340 pg/mL
2 | GPC3 ERY22-dBBDu_183/L072 (bispecific antibody, human IgG1, kappa, L234A L235A, N297A) heavy 1: DIVMTQSPLSLPVTPGEPASISCRSSQSLVHSNRNTYLHWYQQKPGQAPRLLIYKVSNRFSGVPDRFSGSGSGTDFTLKISRVEAEDVGVYYCSQNTHVPPTFGQGTKLEIKSSASTKGPSVFPLAPSSKSTSGGTAALGCLVKDYFPEPVTVSWNSGALTSGVHTFPAVLQSSGLYSLSSVVTVPSSSLGTQTYICNVNHKPSNTKVDKKVEPKSCDKTHTCPPCPAPEAAGGPSVFLFPPKPKDTLMISRTPEVTCVVVDVSHEDPEVKFNWYVDGVEVHNAKTKPREEQYASTYRVVSVLTVLHQDWLNGKEYKCKVSNKALPAPIEKTISKAKGQPREPQVCTLPPSRDELTKNQVSLWCLVKGFYPSDIAVEWESNGQPENNYKTTPPVLDSDGSFFLYSKLTVDKSRWQQGNVFSCSVMHEALHNHYTQKSLSLSPHHHHHHHH light 1: QVQLVQSGAEVKKPGASVKVSCKASGYTFTDYEMHWIRQPPGQGLEWIGAIDPKTGDTAYSQKFKGRVTLTADKSTSTAYMELSSLTSEDTAVYYCTRFYSYTYWGQGTLVTVSSASVAAPSVFIFPPSDEQLKSGTASVVCLLNNFYPREAKVQWKVDNALQSGNSQESVTEQDSKDSTYSLSSTLTLSKADYEKHKVYACEVTHQGLSSPVTKSFNRGEC heavy 2: QVQLVESGGGLVQPGRSLRLSCAASGFTFSNAWMHWVRQAPGKGLEWVAQIKDKGNAYAAYYAPSVKGRFTISRDDSKNSIYLQMNSLKTEDTAVYYCHYVHYASASTVLPAFGVDAWGQGTTVTVSSASTKGPSVFPLAPSSKSTSGGTAALGCLVKDYFPEPVTVSWNSGALTSGVHTFPAVLQSSGLYSLSSVVTVPSSSLGTQTYICNVNHKPSNTKVDKKVEPKSCDKTHTCPPCPAPEAAGGPSVFLFPPKPKDTLMISRTPEVTCVVVDVSHEDPEVKFNWYVDGVEVHNAKTKPREEQYASTYRVVSVLTVLHQDWLNGKEYKCKVSNKALPAPIEKTISKAKGQPREPQVYTLPPSRCELTKNQVSLSCAVKGFYPSDIAVEWESNGQPENNYKTTPPVLDSDGSFFLVSKLTVDKSRWQQGNVFSCSVMHEALHNHYTQKSLSLSPDYKDDDDK light 2: DIVMTQSPLSLPVTPGEPASISCQASQELVHMNRNTYLHWYQQKPGQAPRLLIYKVSNRFPGVPDRFSGSGSGTDFTLKISRVEAEDVGVYYCAQGTSVPFTFGQGTKLEIKRTVAAPSVFIFPPSDEQLKSGTASVVCLLNNFYPREAKVQWKVDNALQSGNSQESVTEQDSKDSTYSLSSTLTLSKADYEKHKVYACEVTHQGLSSPVTKSFNRGEC | 3.21% | 15.8% | 11.1% | 59.8% | 1130 pg/mL | 1450 pg/mL
3 | GPC3 ERY22-dBBDu_183/L063 (bispecific antibody, human IgG1, kappa, L234A L235A, N297A) heavy 1: DIVMTQSPLSLPVTPGEPASISCRSSQSLVHSNRNTYLHWYQQKPGQAPRLLIYKVSNRFSGVPDRFSGSGSGTDFTLKISRVEAEDVGVYYCSQNTHVPPTFGQGTKLEIKSSASTKGPSVFPLAPSSKSTSGGTAALGCLVKDYFPEPVTVSWNSGALTSGVHTFPAVLQSSGLYSLSSVVTVPSSSLGTQTYICNVNHKPSNTKVDKKVEPKSCDKTHTCPPCPAPEAAGGPSVFLFPPKPKDTLMISRTPEVTCVVVDVSHEDPEVKFNWYVDGVEVHNAKTKPREEQYASTYRVVSVLTVLHQDWLNGKEYKCKVSNKALPAPIEKTISKAKGQPREPQVCTLPPSRDELTKNQVSLWCLVKGFYPSDIAVEWESNGQPENNYKTTPPVLDSDGSFFLYSKLTVDKSRWQQGNVFSCSVMHEALHNHYTQKSLSLSPHHHHHHHH light 1: QVQLVQSGAEVKKPGASVKVSCKASGYTFTDYEMHWIRQPPGQGLEWIGAIDPKTGDTAYSQKFKGRVTLTADKSTSTAYMELSSLTSEDTAVYYCTRFYSYTYWGQGTLVTVSSASVAAPSVFIFPPSDEQLKSGTASVVCLLNNFYPREAKVQWKVDNALQSGNSQESVTEQDSKDSTYSLSSTLTLSKADYEKHKVYACEVTHQGLSSPVTKSFNRGEC heavy 2: QVQLVESGGGLVQPGRSLRLSCAASGFTFSNAWMHWVRQAPGKGLEWVAQIKDKGNAYAAYYAPSVKGRFTISRDDSKNSIYLQMNSLKTEDTAVYYCHYVHYASASTVLPAFGVDAWGQGTTVTVSSASTKGPSVFPLAPSSKSTSGGTAALGCLVKDYFPEPVTVSWNSGALTSGVHTFPAVLQSSGLYSLSSVVTVPSSSLGTQTYICNVNHKPSNTKVDKKVEPKSCDKTHTCPPCPAPEAAGGPSVFLFPPKPKDTLMISRTPEVTCVVVDVSHEDPEVKFNWYVDGVEVHNAKTKPREEQYASTYRVVSVLTVLHQDWLNGKEYKCKVSNKALPAPIEKTISKAKGQPREPQVYTLPPSRCELTKNQVSLSCAVKGFYPSDIAVEWESNGQPENNYKTTPPVLDSDGSFFLVSKLTVDKSRWQQGNVFSCSVMHEALHNHYTQKSLSLSPDYKDDDDK light 2: DIVMTQSPLSLPVTPGEPASISCRSSQELVHTNRHTYLHWYQQKPGQAPRLLIYKVSNRFPGVPDRFSGSGSGTDFTLKISRVEAEDVGVYYCAQGTQVPFTFGQGTKLEIKRTVAAPSVFIFPPSDEQLKSGTASVVCLLNNFYPREAKVQWKVDNALQSGNSQESVTEQDSKDSTYSLSSTLTLSKADYEKHKVYACEVTHQGLSSPVTKSFNRGEC | -1.27% | 6.51% | -4.41% | 24.7% | 968 pg/mL | 1130 pg/mL
4 | GPC3 ERY22-dBBDu_167/L091 (bispecific antibody, human IgG1, kappa, L234A L235A, N297A) heavy 1: DIVMTQSPLSLPVTPGEPASISCRSSQSLVHSNRNTYLHWYQQKPGQAPRLLIYKVSNRFSGVPDRFSGSGSGTDFTLKISRVEAEDVGVYYCSQNTHVPPTFGQGTKLEIKSSASTKGPSVFPLAPSSKSTSGGTAALGCLVKDYFPEPVTVSWNSGALTSGVHTFPAVLQSSGLYSLSSVVTVPSSSLGTQTYICNVNHKPSNTKVDKKVEPKSCDKTHTCPPCPAPEAAGGPSVFLFPPKPKDTLMISRTPEVTCVVVDVSHEDPEVKFNWYVDGVEVHNAKTKPREEQYASTYRVVSVLTVLHQDWLNGKEYKCKVSNKALPAPIEKTISKAKGQPREPQVCTLPPSRDELTKNQVSLWCLVKGFYPSDIAVEWESNGQPENNYKTTPPVLDSDGSFFLYSKLTVDKSRWQQGNVFSCSVMHEALHNHYTQKSLSLSPHHHHHHHH light 1: QVQLVQSGAEVKKPGASVKVSCKASGYTFTDYEMHWIRQPPGQGLEWIGAIDPKTGDTAYSQKFKGRVTLTADKSTSTAYMELSSLTSEDTAVYYCTRFYSYTYWGQGTLVTVSSASVAAPSVFIFPPSDEQLKSGTASVVCLLNNFYPREAKVQWKVDNALQSGNSQESVTEQDSKDSTYSLSSTLTLSKADYEKHKVYACEVTHQGLSSPVTKSFNRGEC heavy 2: QVQLVESGGGLVQPGRSLRLSCAASGFTFSNAWMHWVRQAPGKGLEWVAQIKDKGNLYAAYYAPSVKGRFTISRDDSKNSIYLQMNSLKTEDTAVYYCHYVHYASAGGGLPGFGVDAWGQGTTVTVSSASTKGPSVFPLAPSSKSTSGGTAALGCLVKDYFPEPVTVSWNSGALTSGVHTFPAVLQSSGLYSLSSVVTVPSSSLGTQTYICNVNHKPSNTKVDKKVEPKSCDKTHTCPPCPAPEAAGGPSVFLFPPKPKDTLMISRTPEVTCVVVDVSHEDPEVKFNWYVDGVEVHNAKTKPREEQYASTYRVVSVLTVLHQDWLNGKEYKCKVSNKALPAPIEKTISKAKGQPREPQVYTLPPSRCELTKNQVSLSCAVKGFYPSDIAVEWESNGQPENNYKTTPPVLDSDGSFFLVSKLTVDKSRWQQGNVFSCSVMHEALHNHYTQKSLSLSPDYKDDDDK light 2: DIVMTQSPLSLPVTPGEPASISCSASESLLHNNRHTYLHWYQQKPGQAPRLLIYRVSNRFNGVPDRFSGSGSGTDFTLKISRVEAEDVGVYYCGQGTQVPFTFGQGTKLEIKRTVAAPSVFIFPPSDEQLKSGTASVVCLLNNFYPREAKVQWKVDNALQSGNSQESVTEQDSKDSTYSLSSTLTLSKADYEKHKVYACEVTHQGLSSPVTKSFNRGEC | -2.21% | 1.1% | -7.68% | 4.19% | 935 pg/mL | 944 pg/mL
